Holding throughout (test): SPR
For assay [1], the target named is MEDI4212 2M2 (S239D/I332E) (human).
Assay [2] concerns the target MEDI4212 wild-type (WT) monoclonal antibody (human).
Assay [3] has as its target MEDI4212 aFuc (human).
Assay [4] deals with MEDI4212 3M (S239D/A330L/I332E) (human).

For the substance Flag-tagged hFcγRIIIa (158V) (receptor), the Kd (in general, a measure of binding affinity in units of concentration) in assay [1] turned out to be 7 nM; in assay [2], 502 nM; in assay [3], 50 nM; in assay [4] it was 7 nM.
For “Flag-tagged hFcγRIIIa (158F) (from UniProt P08637 17-254) (receptor)”, the Kd was found to be 67 nM in assay [1], 4960 nM in assay [2], 389 nM in assay [3] and 36 nM in assay [4].
